This note sets out measurements from patent publication US20070059825A1.

The experiment deals with human zalpha11 receptor (full-length, on cells) (human) (UniProt Q9HBE5). The experiment can be described thus: cell-based or functional assay.
Sequence of UniProt Q9HBE5 (Q9HBE5 20-538 limits assumed): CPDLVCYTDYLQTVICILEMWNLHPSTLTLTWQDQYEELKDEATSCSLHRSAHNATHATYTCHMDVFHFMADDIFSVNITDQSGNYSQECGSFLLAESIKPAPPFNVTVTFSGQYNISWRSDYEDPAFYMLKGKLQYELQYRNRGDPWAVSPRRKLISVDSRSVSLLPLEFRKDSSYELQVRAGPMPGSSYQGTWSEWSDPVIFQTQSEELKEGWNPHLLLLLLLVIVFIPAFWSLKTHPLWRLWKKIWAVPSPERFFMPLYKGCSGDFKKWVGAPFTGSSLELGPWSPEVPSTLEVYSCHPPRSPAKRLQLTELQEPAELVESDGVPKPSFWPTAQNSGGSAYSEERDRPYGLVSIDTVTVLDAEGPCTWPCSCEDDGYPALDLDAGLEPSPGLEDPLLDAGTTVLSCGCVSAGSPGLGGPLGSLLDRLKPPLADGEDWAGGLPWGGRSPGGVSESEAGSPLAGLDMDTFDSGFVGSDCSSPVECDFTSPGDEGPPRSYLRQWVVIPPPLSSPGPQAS

Sequence of human zalpha11 Ligand-saporin immunotoxin conjugate (Q9HBE4 32-162): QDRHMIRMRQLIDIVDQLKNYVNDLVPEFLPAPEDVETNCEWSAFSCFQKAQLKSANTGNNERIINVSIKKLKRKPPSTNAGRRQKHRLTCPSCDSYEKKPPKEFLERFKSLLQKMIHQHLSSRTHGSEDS

The substance “human zalpha11 Ligand-saporin immunotoxin conjugate” registered a growth inhibition of IM-9 cells at the maximal conjugate concentration (250 ng/ml), Alamar Blue of 79% and a growth inhibition of RAMOS cells at the maximal conjugate concentration (250 ng/ml), Alamar Blue of 65%.
